B1: DNA polymerase delta subunit 3 (Homo sapiens), Q15054 (parent)
chain: MADQLYLENIDEFVTDQNKIVTYKWLSYTLGVHVNQAKQMLYDYVERKRKENSGAQLHVTYLVSGSLIQNGHSCHKVAVVREDKLEAVKSKLAVTASIHVYSIQKAMLKDSGPLFNTDYDILKSNLQNCSKFSAIQCAAAVPRAPAESSSSSKKFEQSHLHMSSETQANNELTTNGHGPPASKQVSQQPKGIMGMFASKAAAKTQETNKETKTEAKEVTNASAAGNKAPGKGNMMSNFFGKAAMNKFKVNLDSEQAVKEEKIVEQPTVSVTEPKLATPAGLKKSSKKAEPVKVLQKEKKRGKRVALSDDETKETENMRKKRRRIKLPESDSSEDEVFPDSPGAYEAESPSPPPPPSPPLEPVPKTEPEPPSVKSSSGENKRKRKRVLKSKTYLDGEGCIVTEKVYESESCTDSEEELNMKTSSVHRPPAMTVKKEPREERKGPKKGTAALGKANRQVSITGFFQRK

Variants of: B1
Settings: with pcna_human PCNA

| Variant | effect of a mutation on the interaction |
| --- | --- |
| MADQLYLENIDEFVTDQNKIVTYKWLSYTLGVHVNQAKQMLYDYVERKRKENSGAQLHVTYLVSGSLIQNGHSCHKVAVVREDKLEAVKSKLAVTASIHVYSIQKAMLKDSGPLFNTDYDILKSNLQNCSKFSAIQCAAAVPRAPAESSSSSKKFEQSHLHMSSETQANNELTTNGHGPPASKQVSQQPKGIMGMFASKAAAKTQETNKETKTEAKEVTNASAAGNKAPGKGNMMSNFFGKAAMNKFKVNLDSEQAVKEEKIVEQPTVSVTEPKLATPAGLKKSSKKAEPVKVLQKEKKRGKRVALSDDETKETENMRKNGGRIKLPESDSSEDEVFPDSPGAYEAESPSPPPPPSPPLEPVPKTEPEPPSVKSSSGENKRKRKRVLKSKTYLDGEGCIVTEKVYESESCTDSEEELNMKTSSVHRPPAMTVKKEPREERKGPKKGTAALGKANRQVSITGFFQRK [K320N;R321G;R322G] | disrupting interaction |

Source: IntAct's records for PubMed 16000169
